Experimental findings from publication PMC5785501, “Crystal structure of lipid A disaccharide synthase LpxB from Escherichia coli” (Nature Communications, 2018) are described below.

Data set [1] deals with the molecule itself. Description: crystal structure; X-ray, one molecule in the asymmetric unit, dimer by crystal symmetry; LiCl, PEG 4000, 0.1 M Tris-HCl pH 8.6; apo and soaked with 10 mM UDP-GlcNAc.
Data set [2] deals with the molecule itself. Description: AUC; LpxB6S at 1 mg/ml, 5,000-16,000 r.p.m. for 10 h each, absorbance at 280 nm; mass modelled.

B1: LpxB7S (LpxB6S with M207S) (enzyme, Escherichia coli, UniProt P10441 1-382, looked up)
chain: MTEQRPLTIALVAGETSGDILGAGLIRALKEHVPNARFVGVAGPRMQAEGCEAWYEMEELAVMGISESSGRSRRSSHIRADLTKRFGELKPDVFVGIDAPDFNITLEGNLKKQGIKTIHYVSPSVWAWRQKRVFKIGRATDLVLAFLPFEKAFYDKYNVPCRFIGHTMADAMPLDPDKNAARDVLGIPHDAHCLALLPGSRGAEVESLSADFLKTAQLLRQTYPDLEIVVPLVNAKRREQFERIKAEVAPDLSVHLLDGMGREAMVASDAALLASGTAALECMLAKCPMVVGYRMKPFTFWLAKRLVKTDYVSLPNLLAGRELVKELLQEECEPQKLAAALLPLLANGKTSHAMHDTFRELHQQIRCNADEQAAQAVLELAQ
notes: lipid A disaccharide synthase LpxB, Escherichia coli; Native LpxB7S, apo and soaked with UDP-GlcNAc (UDP seen); also called LpxB6SM207S; source: E. coli BL21 (DE3), purified (Ni-NTA, Ulp1 cleavage, Superdex 200); not shown: His tag, N-terminal, cleaved; SUMO, N-terminal, cleaved
For B1, the binding result in data set [1] is reported as “binds”.

B2: LpxB6S (E. coli lipid A disaccharide synthase LpxB with V66S, V68S, L69S, L72S, L75S, L76S) (enzyme, Escherichia coli, UniProt P10441 1-382, looked up)
chain: MTEQRPLTIALVAGETSGDILGAGLIRALKEHVPNARFVGVAGPRMQAEGCEAWYEMEELAVMGISESSGRSRRSSHIRADLTKRFGELKPDVFVGIDAPDFNITLEGNLKKQGIKTIHYVSPSVWAWRQKRVFKIGRATDLVLAFLPFEKAFYDKYNVPCRFIGHTMADAMPLDPDKNAARDVLGIPHDAHCLALLPGSRGAEVEMLSADFLKTAQLLRQTYPDLEIVVPLVNAKRREQFERIKAEVAPDLSVHLLDGMGREAMVASDAALLASGTAALECMLAKCPMVVGYRMKPFTFWLAKRLVKTDYVSLPNLLAGRELVKELLQEECEPQKLAAALLPLLANGKTSHAMHDTFRELHQQIRCNADEQAAQAVLELAQ
notes: lipid A disaccharide synthase LpxB, Escherichia coli; residues up to 382 named in the structure; the gene was cloned from strain BL21; also called soluble LpxB; solubilized LpxB; source: E. coli BL21 (DE3), purified (Ni-NTA, Ulp1 cleavage, Superdex 200); not shown: His tag, N-terminal, cleaved; SUMO, N-terminal, cleaved
For the protein B2, in data set [2], the “stoichiometry N” value was found to be 2.

By stoichiometry N is commonly meant the number of molecules, sites or subunits per partner or assembly.
